Experimental data from paper PMC10394066, “Polymorphic amyloid nanostructures of hormone peptides involved in glucose homeostasis display reversible amyloid formation” (Nature Communications, 2023).

Biological target: the molecule itself
Experiment: FTIR; 6 mM peptide in water, pH adjusted from 7.2 to 4.2; amide I band 1625–1630 cm^−1; bio-ATR cell

B1: APR^ex-4 hexapeptide LFIEWL (aggregation-prone region of exendin-4) (peptide)
peptide: LFIEWL
notes: aggregation-prone hexapeptide segment of the non-mammalian exendin-4 (also of exendin-3); free termini; also called LFIEWL (exendin-4); source: synthetic peptide (flow solid-phase synthesis, Fmoc/tBu; RP-HPLC purified)
B1: binds.
